# In patent US8148119B2, “Hydroxylase gene and use thereof” (Microbiopharm Japan Co., Ltd., priority 2006, dated 2012):
# “Also recorded” adds a separate entry of the source. Like-named read-outs stand apart in the source and are kept apart here.
# T1: VDH (Pseudonocardia autotrophica, UniProt C4B644)
# T1 construct: there was no mutation of the VDH gene and the VDH gene was inserted in the designated site; made in house; host or cells: Escherichia coli BL21(DE3), cell-free extract
# T1 sequence (C4B644 2-403): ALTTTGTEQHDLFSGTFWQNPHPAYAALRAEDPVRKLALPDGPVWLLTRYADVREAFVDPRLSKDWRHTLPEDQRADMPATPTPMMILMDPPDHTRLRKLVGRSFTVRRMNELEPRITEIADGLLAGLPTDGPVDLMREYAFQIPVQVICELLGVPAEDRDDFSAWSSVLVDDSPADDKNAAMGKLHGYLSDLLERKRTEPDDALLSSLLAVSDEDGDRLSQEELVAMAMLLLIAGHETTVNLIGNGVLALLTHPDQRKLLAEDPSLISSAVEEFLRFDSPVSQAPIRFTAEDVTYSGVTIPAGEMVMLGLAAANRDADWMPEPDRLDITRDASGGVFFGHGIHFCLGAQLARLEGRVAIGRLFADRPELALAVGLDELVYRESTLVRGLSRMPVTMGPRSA
# Experiments:
# [1] = VD3 conversion in reconstituted system (cell-free extract or purified VDH plus redox partner); assay type: biochemical
# [2] = target: T1, VDH; test: Reduced-CO difference spectral analysis, VDH expression in Escherichia coli BL21(DE3) transformants
# Procedure: First, the cell suspension obtained by the method previously described was subjected to cell disruption at 4° C. using 0.1 mm glass beads by a cell disruptor, Multi-beads shocker (manufactured by Yasui Kikai Corporation). In the cell disruption, ten cycles of 30-second shaking at 2500 rpm and a 30-second break were conducted. The cell-disrupted solution was centrifuged at 12000 rpm for 10 minutes to thereby obtain a cell-free extract. 700 μl of the cell-free extract was transferred into each of two test tubes with caps and carbon monoxide was purged into one of the tubes. Then, a small amount of sodium hydrosulfite was added to the cell-free extract in both of the tubes. Taking the absorption spectrum at from 400 nm to 500 nm of the sample without the purge of carbon monoxide as the baseline level, the absorption spectrum at from 400 to 500 nm of the sample purged with carbon monoxide was scanned using a spectrophotometer (U-3210 SpectrophotoMeter manufactured by HITACHI, Ltd.).
# First, the cell suspension of transformed Escherichia coli BL21(DE3)/pVDH-thcCD obtained by the method previously described was subjected to cell disruption at 4° C. using 0.1 mm glass beads by a cell disruptor, Multi-beads shocker (manufactured by Yasui Kikai Corporation). In the cell disruption, ten cycles of 30-second shaking at 2500 rpm and a 30-second break were conducted. […]
# [3] = cited from earlier work
# [4] = cited from earlier work; remark: listed apart in the source
molecule,measurement,setting,value
"VDH: hydroxylase of vitamin D or the like from Pseudonocardia autotrophica, cytochrome P450, amino acid sequence ID No. 2 (protein, listed as Pseudonocardia autotrophica) MALTTTGTEQHDLFSGTFWQNPHPAYAALRAEDPVRKLALPDGPVWLLTRYADVREAFVDPRLSKDWRHTLPEDQRADMPATPTPMMILMDPPDHTRLRKLVGRSFTVRRMNELEPRITEIADGLLAGLPTDGPVDLMREYAFQIPVQVICELLGVPAEDRDDFSAWSSVLVDDSPADDKNAAMGKLHGYLSDLLERKRTEPDDALLSSLLAVSDEDGDRLSQEELVAMAMLLLIAGHETTVNLIGNGVLALLTHPDQRKLLAEDPSLISSAVEEFLRFDSPVSQAPIRFTAEDVTYSGVTIPAGEMVMLGLAAANRDADWMPEPDRLDITRDASGGVFFGHGIHFCLGAQLARLEGRVAIGRLFADRPELALAVGLDELVYRESTLVRGLSRMPVTMGPRSA",Hydroxides of VD3 detected by HPLC,"[1]; ferredoxin and ferredoxin reductase derived from spinach, 10 μM VD3, 30° C.","a reaction proceeds; also recorded: converting VD3 to HVD, DHVD and THVD"
same,Reaction in reconstituted system with putidaredoxin and putidaredoxin reductase,[1]; redox partner derived from Pseudomonas putida,electron transfer reaction did not proceed
same,Estimated concentration of VDH per culture,[2]; Escherichia coli BL21(DE3)/pVDH-camAB,113 nM
same,VDH expression per culture fluid,[2]; Escherichia coli BL21(DE3)/pVDH-thcCD,258 nM
"P450SU-1: cytochrome P450 derived from actinomycete Streptomyces griseolus ATCC 11796, reported to hydroxylate vitamin D3 (protein, UniProt P18326 2-406, looked up) Vitamin D3 dihydroxylase: TDTATTPQTTDAPAFPSNRSCPYQLPDGYAQLRDTPGPLHRVTLYDGRQAWVVTKHEAARKLLGDPRLSSNRTDDNFPATSPRFEAVRESPQAFIGLDPPEHGTRRRMTISEFTVKRIKGMRPEVEEVVHGFLDEMLAAGPTADLVSQFALPVPSMVICRLLGVPYADHEFFQDASKRLVQSTDAQSALTARNDLAGYLDGLITQFQTEPGAGLVGALVADQLANGEIDREELISTAMLLLIAGHETTASMTSLSVITLLDHPEQYAALRADRSLVPGAVEELLRYLAIADIAGGRVATADIEVEGHLIRAGEGVIVVNSIANRDGTVYEDPDALDIHRSARHHLAFGFGVHQCLGQNLARLELEVILNALMDRVPTLRLAVPVEQLVLRPGTTIQGVNELPVTW","Hydroxylation of vitamin D3 to 25-hydroxy vitamin D3 and of 25-hydroxy vitamin D3 to 1α,25-hydroxy vitamin D3",[3]; reported by Sawada et al. 2004,weak activity
"Human CYP27A1: human cytochrome P450 known to have hydroxylation activity at 25-position of vitamin D3 (protein, UniProt Q02318 34-531, looked up) Sterol 26-hydroxylase, …: ALPSDKATGAPGAGPGVRRRQRSLEEIPRLGQLRFFFQLFVQGYALQLHQLQVLYKAKYGPMWMSYLGPQMHVNLASAPLLEQVMRQEGKYPVRNDMELWKEHRDQHDLTYGPFTTEGHHWYQLRQALNQRLLKPAEAALYTDAFNEVIDDFMTRLDQLRAESASGNQVSDMAQLFYYFALEAICYILFEKRIGCLQRSIPEDTVTFVRSIGLMFQNSLYATFLPKWTRPVLPFWKRYLDGWNAIFSFGKKLIDEKLEDMEAQLQAAGPDGIQVSGYLHFLLASGQLSPREAMGSLPELLMAGVDTTSNTLTWALYHLSKDPEIQEALHEEVVGVVPAGQVPQHKDFAHMPLLKAVLKETLRLYPVVPTNSRIIEKEIEVDGFLFPKNTQFVFCHYVVSRDPTAFSEPESFQPHRWLRNSQPATPRIQHPFGSVPFGYGVRACLGRRIAELEMQLLLARLIQKYKVVLAPETGELKSVARIVLVPNKKVGLQFLQRQC",Km,"[4]; literature values (Sawada et al.; Uchida et al.), read-out: Km for 25-OH VD3",3.5 µM
same,Vmax for 25-OH VD3,[4]; literature values,21 mmol/min/mol of P450
same,Km,"[3]; literature values (Sawada et al. 2004), read-out: Km for VD3",3.2 µM
same,Vmax for VD3,[3]; literature values,270 mmol/min/mol of P450
